Key:
[1] = target: T1, mannitol-1-phosphate dehydrogenase (SaM1PDH) (Staphylococcus aureus, UniProt Q2FEX4); experiment: F6P reductase activity, NADH absorbance, Lineweaver-Burk kinetics; format: biochemical
T1 construct: gene mtlD

[2] = system: O=P(O)(O)OC[C@@H](O)[C@@H](O)[C@H](O)[C@H](O)CO; experiment: purified protein; conditions: NAD+ active site; phosphate moiety at Arg287 and Arg294 (docking, supported by mutants)
[3] = system: O=C(CO)[C@@H](O)[C@H](O)[C@H](O)COP(=O)(O)O; experiment: purified protein; conditions: NADH active site; phosphate moiety at Arg287 and Arg294 (docking, supported by mutants)

Row | Compound | Ki [1] | Km [2] | Km [3]
1 | Cc1c(O)c(O)cc2c1CC=C1[C@@]2(C)CC[C@@]2(C)[C@@H]3C[C@](C)(C(=O)O)CC[C@]3(C)CC[C@]12C [DHCL, dihydrocelastrol] | 4 µM |  | 
2 | mannitol-1-phosphate dehydrogenase (SaM1PDH) (Staphylococcus aureus subsp. aureus USA300) |  | 188 µM | 88.6 µM

Reference: publication PMC6623548, “Targeting Mannitol Metabolism as an Alternative Antimicrobial Strategy Based on the Structure-Function Study of Mannitol-1-Phosphate Dehydrogenase in Staphylococcus aureus” (mBio, 2019)
